Measured values as given in patent US7863432B2, “Nucleic acid molecules encoding AKAP18 delta, a splice variant of a protein kinase A anchor protein” (Forschungsverbund Berlin e.V., priority 2002, dated 2011).

Target: T1, interaction between AKAP18δ and RIIα (Homo sapiens, UniProt P13861)
T1 construct: expressed in transfected cells; host or cells: HEK293
Experiment: FRET measurement of AKAP18δ-CFP / RIIα-YFP interaction in co-transfected HEK293 cells
Type: cell-based
Details: 100 μM
Method: The interaction of the expressed fusion proteins AKAP18δ-CFP and RIIα-YFP was measured in the HEK293 cells using the fluorescence resonance energy transfer (FRET) technology (schematic diagram in FIG. 3). The FRET signals result from an energy transfer from CFP to YFP, which is only possible when the two proteins are in close proximity to each other (<10 nm). Such close proximity of CFP and YFP is achieved only when AKAP186 directly binds the RIIα subunit. In this event, a FRET can be detected. […] A continuous decrease of the FRET signal during measurement indicates inhibition of the interaction between AKAP18δ and RIIα.
HEK293 cells (GBF, Brunswick) were cultured on polylysine-coated 30 mm cover glasses with 10% fetal calf serum (FCS) in Dulbecco's Minimal Eagle medium (DMEM) until a confluence of 40-60% was reached. […]
HEK293 cells were transiently co-transfected with the plasmids encoding RIIα-YFP and AKAP18δ-CFP. […] Fluorescence was excited at a wavelength of 425 nm for CFP and 488 nm for YFP. The emitted fluorescence was measured at a wavelength of 480/30 nm for CFP and 535/26 nm for YFP. The FRET of CFP to YFP was determined by excitation of CFP at a wavelength of 425 nm and measurement of the emission of YFP at a wavelength of 535/26 nm. Non-specific background fluorescence was determined in a region with no cells and subtracted. […]

T1 sequence (P13861 whole entry): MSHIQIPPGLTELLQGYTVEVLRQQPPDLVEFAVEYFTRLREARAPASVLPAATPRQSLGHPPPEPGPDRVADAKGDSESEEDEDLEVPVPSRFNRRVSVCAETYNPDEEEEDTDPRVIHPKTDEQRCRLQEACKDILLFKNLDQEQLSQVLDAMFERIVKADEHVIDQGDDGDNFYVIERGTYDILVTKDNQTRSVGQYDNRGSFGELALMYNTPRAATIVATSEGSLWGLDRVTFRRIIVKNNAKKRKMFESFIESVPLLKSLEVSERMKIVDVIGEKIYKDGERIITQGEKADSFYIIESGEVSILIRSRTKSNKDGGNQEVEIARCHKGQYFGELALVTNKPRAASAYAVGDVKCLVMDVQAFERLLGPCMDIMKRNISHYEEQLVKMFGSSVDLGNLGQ

mean value of the 535/480 ratio after addition of peptide (HEK293 cells, ratio >0.6 taken as positive FRET signal): about 0.35
decrease of the 535/480 nm ratio (FRET signal) (within 80 min, HEK293 cells co-expressing AKAP18δ-CFP and RIIα-YFP, ratio before addition about 1.3): more than 50%
Substance: S-Ht31: membrane-permeable peptide; sequence of the RII binding domain of AKAP Ht31, coupled to a stearate residue on the N terminus
